Source: publication PMC11074293 (2024)

Tests used:
Experiment in all cases: ITC
[1] = molecular target: CUL3^Δ1–13-RBX1 (human, UniProt Q13618 14-768; P62877 1-108)
[2] = molecular target: CUL3^Δ1–24-RBX1 (human, UniProt Q13618 25-768; P62877 1-108)
[3] = molecular target: CUL3^WT-RBX1 (human, UniProt Q13618 1-768; P62877 1-108)
CUL3^WT-RBX1, sequence (Q13618 whole entry, chain 1 of 2): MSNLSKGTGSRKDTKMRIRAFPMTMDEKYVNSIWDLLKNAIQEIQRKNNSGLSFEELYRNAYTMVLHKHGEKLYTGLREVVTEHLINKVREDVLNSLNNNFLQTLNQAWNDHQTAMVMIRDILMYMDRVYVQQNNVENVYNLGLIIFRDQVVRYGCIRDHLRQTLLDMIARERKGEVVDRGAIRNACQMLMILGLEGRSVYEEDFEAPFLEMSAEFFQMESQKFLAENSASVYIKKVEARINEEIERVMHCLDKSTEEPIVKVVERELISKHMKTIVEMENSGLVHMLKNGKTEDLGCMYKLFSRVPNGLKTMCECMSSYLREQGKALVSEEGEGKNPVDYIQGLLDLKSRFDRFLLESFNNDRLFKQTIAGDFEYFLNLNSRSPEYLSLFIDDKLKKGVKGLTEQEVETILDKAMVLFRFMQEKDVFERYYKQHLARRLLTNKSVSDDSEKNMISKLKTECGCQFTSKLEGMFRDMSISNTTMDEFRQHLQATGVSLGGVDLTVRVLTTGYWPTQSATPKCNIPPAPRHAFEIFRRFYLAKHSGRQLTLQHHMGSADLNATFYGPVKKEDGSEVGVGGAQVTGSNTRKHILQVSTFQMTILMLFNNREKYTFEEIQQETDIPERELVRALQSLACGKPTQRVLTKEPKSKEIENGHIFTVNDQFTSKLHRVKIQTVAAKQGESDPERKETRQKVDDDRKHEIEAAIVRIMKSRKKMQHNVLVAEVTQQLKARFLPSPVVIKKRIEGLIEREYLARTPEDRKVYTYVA
CUL3^WT-RBX1, sequence (P62877 whole entry, chain 2 of 2): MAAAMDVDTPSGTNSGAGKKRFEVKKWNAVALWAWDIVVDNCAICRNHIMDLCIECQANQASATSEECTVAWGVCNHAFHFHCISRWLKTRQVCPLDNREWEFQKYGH

CUL3^Δ1–13-RBX1, sequence (Q13618 14-768, stated change not applied, chain 1 of 2): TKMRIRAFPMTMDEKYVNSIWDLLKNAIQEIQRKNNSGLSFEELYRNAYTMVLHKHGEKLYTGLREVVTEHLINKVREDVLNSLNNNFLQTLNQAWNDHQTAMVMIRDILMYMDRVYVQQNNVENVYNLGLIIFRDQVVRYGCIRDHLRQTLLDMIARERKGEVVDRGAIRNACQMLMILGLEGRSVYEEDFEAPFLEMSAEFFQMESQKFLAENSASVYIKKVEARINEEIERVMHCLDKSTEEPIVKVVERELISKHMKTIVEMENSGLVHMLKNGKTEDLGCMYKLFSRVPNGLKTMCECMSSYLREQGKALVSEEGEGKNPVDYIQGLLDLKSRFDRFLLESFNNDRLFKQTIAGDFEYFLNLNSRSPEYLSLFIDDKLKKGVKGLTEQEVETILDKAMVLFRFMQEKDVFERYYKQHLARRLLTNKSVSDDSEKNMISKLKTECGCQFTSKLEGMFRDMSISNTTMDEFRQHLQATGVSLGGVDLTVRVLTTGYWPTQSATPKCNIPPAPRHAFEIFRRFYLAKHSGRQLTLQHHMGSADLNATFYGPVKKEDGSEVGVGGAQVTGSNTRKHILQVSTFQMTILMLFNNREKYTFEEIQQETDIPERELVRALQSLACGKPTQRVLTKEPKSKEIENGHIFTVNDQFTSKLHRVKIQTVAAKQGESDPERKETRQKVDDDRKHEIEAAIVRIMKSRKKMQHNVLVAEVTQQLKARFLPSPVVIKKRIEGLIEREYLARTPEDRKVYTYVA
CUL3^Δ1–13-RBX1, sequence (P62877 whole entry, stated change not applied, chain 2 of 2): as the sequence (P62877 whole entry, chain 2 of 2) above
CUL3^Δ1–24-RBX1, sequence (Q13618 25-768, stated change not applied, chain 1 of 2): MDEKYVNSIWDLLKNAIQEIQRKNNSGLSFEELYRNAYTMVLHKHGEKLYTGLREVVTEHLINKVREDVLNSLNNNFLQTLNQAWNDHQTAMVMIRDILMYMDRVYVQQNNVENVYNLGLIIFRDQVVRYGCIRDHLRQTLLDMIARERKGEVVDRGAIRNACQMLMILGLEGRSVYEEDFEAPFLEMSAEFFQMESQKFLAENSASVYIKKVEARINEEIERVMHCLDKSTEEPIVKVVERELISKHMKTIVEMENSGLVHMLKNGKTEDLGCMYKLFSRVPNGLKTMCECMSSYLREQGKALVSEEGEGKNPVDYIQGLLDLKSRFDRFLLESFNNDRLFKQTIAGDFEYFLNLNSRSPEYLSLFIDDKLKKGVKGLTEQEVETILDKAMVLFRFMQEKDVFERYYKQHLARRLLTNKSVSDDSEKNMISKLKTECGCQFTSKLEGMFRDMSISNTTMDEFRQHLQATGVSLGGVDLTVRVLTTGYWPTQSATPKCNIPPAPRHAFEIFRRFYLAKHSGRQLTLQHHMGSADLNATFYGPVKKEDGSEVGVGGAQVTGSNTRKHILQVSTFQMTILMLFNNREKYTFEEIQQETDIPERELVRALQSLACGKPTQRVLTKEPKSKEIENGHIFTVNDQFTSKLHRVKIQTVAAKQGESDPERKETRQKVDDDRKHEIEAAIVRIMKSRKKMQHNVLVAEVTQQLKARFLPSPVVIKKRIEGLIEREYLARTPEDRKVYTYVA
CUL3^Δ1–24-RBX1, sequence (P62877 whole entry, stated change not applied, chain 2 of 2): as the sequence (P62877 whole entry, chain 2 of 2) above

Kd [1]: 176 nM
Kd [2]: 483 nM
Kd [3]: 60 nM
B1: KLHL22^1–178 (domain or fragment)
chain: MAEEQEFTQLCKLPAQPSHPHCVNNTYRSAQHSQALLRGLLALRDSGILFDVVLVVEGRHIEAHRILLAASCDYFRGMFAGGLKEMEQEEVLIHGVSYNAMCQILHFIYTSELELSLSNVQETLVAACQLQIPEIIHFCCDFLMSWVDEENILDVYRLAELFDLSRLTEQLDTYILKN
